The source of these data is US20220105122A1 (UNIVERSITY OF TOKYO, published 2022).

A word on the EC50: it is the concentration needed to bring the measured effect to its halfway point. A low value points to higher potency in that assay.

In this test the target is T1, human HVEM (Herpes Virus entry mediator) expressed on HEK293T cells (human, UniProt Q92956 39-283).
T1 construct: whole, on cells; In the cell ELISA the HVEM-introduced HEK293T cells were fixed with 4% paraformaldehyde; in the reporter assay live HVEM-expressing HEK293T cells were used; also called TNFRSF14; HVEM/TNFRSF14
T1 sequence (looked up): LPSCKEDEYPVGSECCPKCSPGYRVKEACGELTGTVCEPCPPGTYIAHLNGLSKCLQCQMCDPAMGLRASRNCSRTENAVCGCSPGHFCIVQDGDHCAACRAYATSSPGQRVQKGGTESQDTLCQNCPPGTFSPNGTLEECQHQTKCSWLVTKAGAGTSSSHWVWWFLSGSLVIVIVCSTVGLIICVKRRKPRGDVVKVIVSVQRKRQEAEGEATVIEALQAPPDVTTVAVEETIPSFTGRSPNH
As to the kind of experiment: cell ELISA on fixed HVEM-expressing HEK293T cells, His-tagged VHH detected with anti-His-tag mAb-HRP. The text has this:
The VHH antibodies prepared in the above item (1) were used to measure whether the VHH antibodies were detected in HVEM on the surface of the HVEM-expressing HEK293T cell membrane. Specifically, the HEK293T cells introduced with HVEM and the HEK293T cells not expressing HVEM as a negative control were each seeded at 1×10⁴ cells/well, fixed with 4% paraformaldehyde, and then reacted with the VHH antibodies added with 6×His tag. The horseradish peroxidase HRP-labeled anti-histidine tag antibody anti-His-tag mAb-HRP-DirecT (MBL) was reacted, and ELISA POD Substrate TMB Kit (Nacalai Tesque, Inc.) was used to measure an enzyme reaction of HRP with the substrate. The effect size data obtained for the antibody concentration was subjected to non-linear regression to a sigmoid curve based on the following formula: […]
Background: An ELISA detects its analyte on a solid surface through an enzyme-linked reagent.

B1: anti-human HVEM alpaca VHH antibody #3 (VHH)
VHH: QVQLVESGGGSVQPGGSLRLSCAASGSIGSIHRWDWYRLCPGKQREWVATLNSEGGPTYADSVEGRFTISRDNAKNMVYLQMNSLKPEDTAVYRCSARTVPFEYWGRGTQVTVSS
notes: Tested as VHH with a 6xHis tag; also called VHH #3; VHH(I); not shown: 6xHis tag added for the assay
As to B1, the EC50 is less than 80 nM.

B2: anti-human HVEM alpaca VHH antibody #2 (VHH)
VHH: QVQLVESGGGLVQPGGSLRLSCVASGRLFDTYTMAWYRLPPGKQRELVADISRTGFTNYADSVKGRFTISRDNAKNTVYLQMNSLKPDDTAHYRCKVREPATMYEYWGQGTQVTVSS
notes: Tested as VHH with a 6xHis tag; also called VHH #2; VHH(II); not shown: 6xHis tag added for the assay
As for B2, the EC50 was less than 80 nM.

B3: anti-human HVEM alpaca VHH antibody #1 (VHH)
VHH: QVQLVESGGGLVQPGGSLRLSCAASGFTFSTHAMSWYRQAPGKERELVAHISSTGGSTNYADSVKGRFTISRDNAKNTVYLQMNSLKPEDTAVYRCNARDWYEYWGRGTQVTVSS
notes: Tested as VHH with a 6xHis tag; also called VHH #1; not shown: 6xHis tag added for the assay
For B3, the EC50 was less than 80 nM.

B4: anti-human HVEM alpaca VHH antibody #4 (VHH)
VHH: QVQLVESGGGLVQPGGSLRLSCAAAESMLSPYSMGWYRLPPGKQRELVASLGSGGRTTYADSVKGRFTISRDNAKNTAYLQMNSLKPEDTAVYRCNIRELLGRRYEYWSQGTQVTVSS
notes: Tested as VHH with a 6xHis tag; also called VHH #4; not shown: 6xHis tag added for the assay
Molecule B4 yielded an EC50 of less than 80 nM.

B5: anti-human HVEM alpaca VHH antibody #5 (VHH)
VHH: QVQLVESGGGLVQPGGSLRLSCAASGFTFSSSHMTWVRQAPGKGLEWVSLINSSGRTAYVDSVAGRFTISRDNAKNTLYLQMTNLKPEDTAVYYCSKGGWDGLPSSSIRGQGTQVTVSS
notes: Tested as VHH with a 6xHis tag; also called VHH #5; not shown: 6xHis tag added for the assay
The molecule B5 returned an EC50 of less than 80 nM.
